This passage reports stoichiometry N results from paper PMC10366546.

The target in this test is Ostreolysin A6 (Pleurotus ostreatus). Nature of the test: high-speed atomic force microscopy; OlyA6 added (final around 0.35 uM, 5.8 ug/ml) to a d17:1/12:0-CPE/Chol (1:1) supported lipid bilayer on mica, PBS 10 mM pH 7.5, room temperature; self-assembly on the membrane.

One may read the stoichiometry N as a count of units in the complex or per binding partner.

Values joined by “and” are separate entries in the source; they are usually repeats but may differ in a detail not shown here. Equal values may be shown once.

As to Ostreolysin A6 (natural protein), the stoichiometry N was 6 and 2.
